Assay results reported in patent publication US20220411487A1 (Regeneron, published 2022).
Numbering of substitutions follows the chain as printed. Names may count otherwise.

T1: mfTMPRSS6_S751A-MMH (Macaca fascicularis, UniProt Q8IU80 77-811 (human entry))
T1 construct: also called REGN5977; Macaca fascicularis TMPRSS6 extracellular domain with a S751A mutation and a C-terminal myc-myc-hexahistidine tag
T1 chain: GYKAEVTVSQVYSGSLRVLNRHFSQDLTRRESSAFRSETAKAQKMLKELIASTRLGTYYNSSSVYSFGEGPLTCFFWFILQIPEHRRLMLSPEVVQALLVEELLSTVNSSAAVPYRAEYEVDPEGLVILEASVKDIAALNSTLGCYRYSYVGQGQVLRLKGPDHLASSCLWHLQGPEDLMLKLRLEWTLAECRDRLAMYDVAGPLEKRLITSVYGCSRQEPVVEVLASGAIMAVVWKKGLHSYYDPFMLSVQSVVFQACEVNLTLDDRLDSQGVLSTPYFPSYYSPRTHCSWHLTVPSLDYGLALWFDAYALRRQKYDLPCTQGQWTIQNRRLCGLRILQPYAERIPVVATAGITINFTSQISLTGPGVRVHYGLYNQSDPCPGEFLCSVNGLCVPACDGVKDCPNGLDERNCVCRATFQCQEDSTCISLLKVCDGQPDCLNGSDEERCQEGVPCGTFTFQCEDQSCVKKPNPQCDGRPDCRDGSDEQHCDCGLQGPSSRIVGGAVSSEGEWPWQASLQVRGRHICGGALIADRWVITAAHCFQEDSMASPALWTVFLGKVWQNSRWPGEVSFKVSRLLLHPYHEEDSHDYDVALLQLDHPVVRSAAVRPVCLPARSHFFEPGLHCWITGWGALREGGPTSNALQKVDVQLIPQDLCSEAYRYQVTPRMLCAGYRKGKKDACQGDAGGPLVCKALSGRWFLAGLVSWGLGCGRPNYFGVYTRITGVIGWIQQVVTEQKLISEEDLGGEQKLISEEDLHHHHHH

T2: full length mouse TMPRSS6 on HEK293 cells (HEK293/mTMPRSS6) (mouse, UniProt Q9DBI0 1-811)
T2 construct: line sorted for high expression
T2 sequence: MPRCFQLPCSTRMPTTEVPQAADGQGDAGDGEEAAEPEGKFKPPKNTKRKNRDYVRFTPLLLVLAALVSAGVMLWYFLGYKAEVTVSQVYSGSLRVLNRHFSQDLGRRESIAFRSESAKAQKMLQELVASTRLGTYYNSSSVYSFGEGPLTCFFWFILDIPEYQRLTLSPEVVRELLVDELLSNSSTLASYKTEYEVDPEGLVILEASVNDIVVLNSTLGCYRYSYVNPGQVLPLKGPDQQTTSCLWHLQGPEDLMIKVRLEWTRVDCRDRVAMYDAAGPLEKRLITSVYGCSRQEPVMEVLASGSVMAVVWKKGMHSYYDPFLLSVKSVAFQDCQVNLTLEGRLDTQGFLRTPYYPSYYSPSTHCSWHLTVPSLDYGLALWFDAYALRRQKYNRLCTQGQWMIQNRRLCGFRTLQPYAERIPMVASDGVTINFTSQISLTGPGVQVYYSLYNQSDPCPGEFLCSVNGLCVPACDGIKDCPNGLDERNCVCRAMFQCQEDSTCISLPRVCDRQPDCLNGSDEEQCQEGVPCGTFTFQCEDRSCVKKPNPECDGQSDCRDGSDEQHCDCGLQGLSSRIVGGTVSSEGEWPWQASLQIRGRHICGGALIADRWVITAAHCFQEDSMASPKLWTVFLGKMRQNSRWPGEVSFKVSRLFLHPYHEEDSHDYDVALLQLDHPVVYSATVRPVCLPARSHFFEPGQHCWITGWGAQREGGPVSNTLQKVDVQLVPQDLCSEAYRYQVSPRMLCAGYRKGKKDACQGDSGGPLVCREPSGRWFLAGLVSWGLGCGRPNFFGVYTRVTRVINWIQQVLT

B1: REGN7974 (antibody, human IgG4 S228P, kappa, V domains shown)
VH: EVQLVESGGGLVQPGRSLRLSCIASGFNFGDYGMSWVRQAPGKGLEWVGFIRSKAYGGTTEYAASVKGRFTISRDDSKSIAYLQMNSLKTEDAAMYYCSRDYYDILTGYYGDYWGQGTLVTVSS
VL: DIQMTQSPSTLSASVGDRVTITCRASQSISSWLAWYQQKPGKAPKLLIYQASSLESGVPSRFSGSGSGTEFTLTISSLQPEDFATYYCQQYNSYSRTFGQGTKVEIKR
notes: fully human; human IgG4 Fc with hinge S108P; also called mAb41422
B2: REGN7969 (antibody, human IgG4 S228P, kappa, V domains shown)
VH: QVQLVESGGGVVQPGRSLRLSCAASGFTFNNYGMHWVRQAPGKGLEWVAIISYDGSNEYYSDSVKGRFTISRDNSKNTLYLQMNSLRAEDTAVYYCARDQDYGGNLFHYWGQGTLVTVSS
VL: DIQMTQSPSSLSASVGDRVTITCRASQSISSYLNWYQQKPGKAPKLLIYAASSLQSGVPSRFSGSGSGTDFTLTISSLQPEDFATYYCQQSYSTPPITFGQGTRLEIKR
notes: fully human; human IgG4 Fc with hinge S108P; also called mAb37746
B3: REGN7971 (antibody, human IgG4 S228P, kappa, V domains shown)
VH: B2 VH with N30S, N31T, E58D, S61L, S85N, R98K, D101G, H108A, Y109S
VL: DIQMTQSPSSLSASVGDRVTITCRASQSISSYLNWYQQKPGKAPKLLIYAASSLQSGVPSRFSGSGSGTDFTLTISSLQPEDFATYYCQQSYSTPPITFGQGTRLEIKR
notes: fully human; human IgG4 Fc with hinge S108P; also called mAb37763
B4: REGN7999 (antibody, human IgG4 S228P, kappa, V domains shown)
VH: EVQLVESGGGLVQPGGSLRLSCAASGFTFSSYAMTWVRQAPGKGLEWVSAISGSDTSTYYADSVKGRFTISRDNSKNTLFLQMNSLRAEDTAVYYCAKHQDYDFSYYYSAMDVWGQGTTVTVSS
VL: DIQMTQSPSSLSASVGDRVIITCRASQDFNSWLAWYQQKPGKAPKLLIYAASSLQSGVPSRFSGSGSGTDFTLTISSLQPEDFATYYCQQTDSFPFTFGPGTKVDIKR
notes: fully human; human IgG4 Fc with hinge S108P; also called mAb41450
B5: REGN8023 (antibody, human IgG4 S228P, kappa, V domains shown)
VH: EVQLVESGGGLVKPGGSLRISCAASGFIFVDYAMHWVRQAPGKGLEWVSGISWNSGSIGYADSVKGRFTISRDNAKKSLYLQMSGLRPEDTALYYCVKSGFYYVRSYFDNWGQGTLVTVSS
VL: DIVMTQSPLSLPVTPGEPASISCRSSQSLLDSDDGNTYLDWYLRKPGQSPQLLIYTLSYRASGVPDRFSGSGSGTDFTLKISRVEADDVGVYYCMQRIEFPLTFGGGTKVEIKR
notes: fully human; human IgG4 Fc with hinge S108P; also called mAb37699
B6: REGN7977 (antibody, V domains shown)
VH: EVQLVESGGGLVKPGGSLRVSCAASGVTFSNVWMSWVRQVPGKGLEWVGRIKSKTDGGTTDYAAPVKGRFTISKDDSKNTLFLQMNSLKTEDTAVYYCTTETGDFWSGYYPRFQHWGQGTLVTVSS
VL: DIQMTQSPSSLSASVGDRVTITCRASQYISTYLNWYQQKPGKAPSLLIYAASSLQSGVPSRFSGSGSGTDFTLTISSLQPEDFASYSCQQSYSTPPYTFGQGTKLEIKR
notes: fully human; human IgG4 Fc with hinge S108P; also called mAb41465

Target: T1, mfTMPRSS6_S751A-MMH
Experiment: SPR, mAb captured via anti-hFc, 25 C
Description: (§1) The equilibrium dissociation constant (KD) for TMPRSS6 binding to different TMPRSS6 monoclonal antibodies (mAbs) was determined using a real-time surface plasmon resonance biosensor using a Biacore 4000 instrument. All binding studies were performed in 10 mM HEPES, 150 mM NaCl, 3 mM EDTA, and 0.05% v/v Surfactant Tween-20, pH 7.4 (HBS-ET) running buffer at 25° C. and 37° C. The Biacore CM5 sensor chip surface was first derivatized by amine coupling with a human Fc specific mouse mAb to capture different TMPRSS6 mAbs. […] Different concentrations (100 nM to 3.7 nM, 3-fold serial dilution) of the TMPRSS6 reagent proteins prepared in HBS-EP running buffer were injected over the TMPRSS6 mAb captured surface for 150 seconds at a flow rate of 30 μL/min and their dissociation in HBS-ET running buffer was monitored for 10 minutes. At the end of each cycle, the TMPRSS6 mAb captured surface was regenerated using a 12 second injection of 20 mM phosphoric acid.
(§2) The association rate (kₐ) and dissociation rate (kd) were determined by fitting the real-time binding sensorgrams to a 1:1 binding model with mass transport limitation using Scrubber 2.0 (BioLogic Software) curve-fitting software. Binding dissociation equilibrium constant (KD) and dissociative half-life (t½) were calculated from the kinetic rates as: […]

Row | 100 nM Ag Bound | Kd | koff | kon | t½ | Binder
1 | 188 RU | 7180 pM | 0.00192 s⁻¹ | 268000 M⁻¹ s⁻¹ | 0.1 h | B1
2 | 92 RU | 435 pM | 0.000182 s⁻¹ | 419000 M⁻¹ s⁻¹ | 1.05 h | B2
3 | 109 RU | 283 pM | 0.000138 s⁻¹ | 487000 M⁻¹ s⁻¹ | 1.4 h | B3
4 | 185 RU | 110 pM | 7.23e-05 s⁻¹ | 660000 M⁻¹ s⁻¹ | 2.67 h | B4
5 | 203 RU | 65 pM | 5.79e-05 s⁻¹ | 891000 M⁻¹ s⁻¹ | 3.32 h | B5
6 | 155 RU | 3090 pM | 0.000697 s⁻¹ | 225000 M⁻¹ s⁻¹ | 0.283 h | B6

target: T3, hTMPRSS6_S762A-MMH (human, UniProt Q8IU80 77-811); experiment: SPR, mAb captured via anti-hFc, 25 C
T3 construct: also called REGN5330; human TMPRSS6_S762A-MMH
Description: as §1, §2

Row | 100 nM Ag Bound | Kd | koff | kon | t½ | Binder
7 | 191 RU | 2630 pM | 0.00068 s⁻¹ | 259000 M⁻¹ s⁻¹ | 0.283 h | B1
8 | 89 RU | 450 pM | 0.000182 s⁻¹ | 404000 M⁻¹ s⁻¹ | 1.07 h | B2
9 | 103 RU | 322 pM | 0.000147 s⁻¹ | 455000 M⁻¹ s⁻¹ | 1.32 h | B3
10 | 176 RU | 243 pM | 6.49e-05 s⁻¹ | 267000 M⁻¹ s⁻¹ | 2.97 h | B4
11 | 205 RU | 128 pM | 8.6e-05 s⁻¹ | 671000 M⁻¹ s⁻¹ | 2.23 h | B5
12 | 159 RU | 1690 pM | 0.000368 s⁻¹ | 218000 M⁻¹ s⁻¹ | 0.517 h | B6

target: T2, full length mouse TMPRSS6 on HEK293 …; experiment: flow cytometry, HEK293 cells expressing target
Description: To assess the binding of anti-TMPRSS6 antibodies of the present disclosure to the receptor expressed on the cell surface, antibodies (including an IgG subclass control) were serially diluted in assay buffer (PBS without Ca⁺⁺ and Mg⁺⁺ containing 2% FBS) from 375 nM to 22.9 pM (plus a sample containing assay buffer alone without test molecule) and incubated with 0.5×10⁶ cells/well at 4° C. for 30 minutes in assay buffer. […] Cells were fixed using BD CytoFix™ (Becton Dickinson, #554655) and analyzed on either the IQue® or IQue®Plus Flow Cytometers (Intellicyt®). Unstained and secondary antibody alone controls were also tested for all cell lines. The results were analyzed using ForeCyt® (IntelliCyt®) software to determine the geometric means of fluorescence for viable cells and binding ratio was calculated by normalizing the geometric mean value of the test condition by the geometric mean value of the corresponding unstained cells.

Row | Max. Fold Binding | EC50 | Binder
13 | 1 fold over unstained control |  | B1
14 | 1 fold over unstained control |  | B2
15 | 1 fold over unstained control |  | B3
16 | 421 fold over unstained control | 4500 pM | B4
17 | 296 fold over unstained control | 840 pM | B5
18 | 125 fold over unstained control | 9100 pM | B6
